Data on 9 molecules can be found in US20250277029A1 (Amgen, published 2025).

Assay [1] addresses T1, human cannabinoid receptor 1 (huCB1), full length, expressed on cells (human, UniProt P21554 1-472). As to the kind of experiment: cell-based or functional assay.
For assay [2], the target named is T1, human cannabinoid receptor 1 (huCB1), …. Nature of the assay: cell-based or functional assay. This is another data set of the same source.
Assay [3] has the same target. As to the kind of experiment: KinExA on-cell ranking, HEK 293T cells expressing full length CB1; %IFF of LIBC523661 divided by %IFF of antibody.
For assay [4] the target is unchanged. Nature of the assay: cell-based or functional assay. This is another data set of the same source.
For assay [5], the target named is T2, huCB1 nanodisc (CB1-ND) (human, UniProt P21554 99-414).
T2 construct: The His-tagged CB1 is embedded in a POPC lipid nanodisc with MSP1D1 scaffold protein (molar ratio 480:8:1); also called huCB1-ND; #CB1-008
Nature of the assay: Octet BLI; antibody captured by anti-human Fc, CB1-nanodisc in solution, 1:1 model.

Assay [6] addresses T3, His-tagged huCB1-ND (human CB1 in nanodisc) (human).
T3 construct: CB1 construct of Cell 167(3) (2016) 750-762 expressed in Sf9 cells; POPC:MSP1D1:CB1 480:8:1; also called CB1-nanodisc; huCB1-Nanodisc; not shown: histidine purification tag
Nature of the assay: flow cytometry, yeast-displayed IgG, binding/display ratio.

In assay [7] the target is T4, GFP-fused huCB1-SMALP (human CB1 in styrene maleic acid lipoparticles) (human, UniProt P21554 1-472).
T4 construct: Prepared as in Luna V. et al. 2018; also called huCB1-GFP-SMALP; wtCB1-SMALP; not shown: GFP fusion
As to the kind of experiment: flow cytometry, yeast-displayed IgG, GFP MFI.

Assay [8] has as its target T5, human cannabinoid receptor type 2 (CB2) (human, UniProt P34972 1-360).
T5 construct: also called huCB2; full length hu CB2
Nature of the assay: binding to huCB2, fold over mock (method not described).

For assay [9], the target named is T3, His-tagged huCB1-ND (human CB1 in …). Nature of the assay: flow cytometry, yeast-displayed IgG, huCB1-ND over empty-ND.
Assay [10] concerns the target T4, GFP-fused huCB1-SMALP (human CB1 in …). Nature of the assay: flow cytometry on IgG-displaying yeast, 100 nM GFP-fused huCB1-SMALP, GFP in BB515-A (y) vs AlexaFluor647 anti-huFab display in APC-A (x).
Assay [11] has as its target T5, human cannabinoid receptor type 2 (CB2). Nature of the assay: fold over mock (Table 14).
Assay [12] has as its target T6, mouse CB1 (mouse, UniProt P47746 1-473).
T6 construct: also called muCB1; murine CB1
As to the kind of experiment: fold over mock (Table 14).

Assay [13] deals with T3, His-tagged huCB1-ND (human CB1 in …). Nature of the assay: flow cytometry on IgG-displaying yeast, 0.2 nM His-tagged huCB1 nanodisc, APC anti-His (y) vs PE anti-huFc display (x).
In assay [14] the target is T6, mouse CB1. Nature of the assay: binding to muCB1, fold over mock (method not described).
The target in assay [15] is T1, human cannabinoid receptor 1 (huCB1), …. As to the kind of experiment: cell-based or functional assay. This is another data set of the same source.
Assay [16] has the same target. Nature of the assay: FACS on transiently transfected HEK293T cells.
In assay [17] the target is T7, truncated human CB1 (devoid of the 1-98 aa N-term), expressed on cells (human, UniProt P21554 99-472).
T7 construct: Transiently expressed on HEK293T cells; also called Truncated hu CB1; N-term truncated human CB1
Nature of the assay: FACS on transiently transfected HEK293T cells.

Assay [18] addresses T8, mouse CB1, full length, expressed on cells (mouse, UniProt P47746 1-473).
T8 construct: Transiently expressed on HEK293T cells; also called Full length mu CB1; muCB1
Nature of the assay: FACS on transiently transfected HEK293T cells.

Assay [19] addresses T9, human cannabinoid receptor type 2 (CB2), full length, expressed on cells (human, UniProt P34972 1-360).
T9 construct: Transiently expressed on HEK293T cells; also called Full length hu CB2; huCB2
Nature of the assay: FACS on transiently transfected HEK293T cells.

T9 sequence (P34972 whole entry): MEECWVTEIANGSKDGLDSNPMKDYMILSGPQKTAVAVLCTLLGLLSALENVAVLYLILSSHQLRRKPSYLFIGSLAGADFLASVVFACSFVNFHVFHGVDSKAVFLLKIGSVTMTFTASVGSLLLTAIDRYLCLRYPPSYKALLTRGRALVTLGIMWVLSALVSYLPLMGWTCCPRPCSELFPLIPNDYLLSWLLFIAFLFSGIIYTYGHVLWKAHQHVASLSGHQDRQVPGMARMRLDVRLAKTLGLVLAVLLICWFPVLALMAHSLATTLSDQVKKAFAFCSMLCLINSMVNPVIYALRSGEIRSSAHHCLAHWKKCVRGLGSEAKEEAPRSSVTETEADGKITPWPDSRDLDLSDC
T5 sequence (P34972 whole entry): as above
T7 sequence (P21554 99-472): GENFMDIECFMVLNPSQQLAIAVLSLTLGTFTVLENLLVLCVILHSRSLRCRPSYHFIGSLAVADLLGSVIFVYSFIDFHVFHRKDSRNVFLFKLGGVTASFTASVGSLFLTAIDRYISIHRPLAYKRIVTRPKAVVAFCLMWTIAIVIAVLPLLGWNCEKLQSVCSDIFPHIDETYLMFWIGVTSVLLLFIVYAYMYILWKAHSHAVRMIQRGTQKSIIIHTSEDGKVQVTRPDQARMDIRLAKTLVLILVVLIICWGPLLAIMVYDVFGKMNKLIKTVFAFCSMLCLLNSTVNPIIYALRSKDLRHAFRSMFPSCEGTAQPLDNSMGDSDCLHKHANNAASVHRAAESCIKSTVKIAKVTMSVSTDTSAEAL
T8 sequence (P47746 whole entry): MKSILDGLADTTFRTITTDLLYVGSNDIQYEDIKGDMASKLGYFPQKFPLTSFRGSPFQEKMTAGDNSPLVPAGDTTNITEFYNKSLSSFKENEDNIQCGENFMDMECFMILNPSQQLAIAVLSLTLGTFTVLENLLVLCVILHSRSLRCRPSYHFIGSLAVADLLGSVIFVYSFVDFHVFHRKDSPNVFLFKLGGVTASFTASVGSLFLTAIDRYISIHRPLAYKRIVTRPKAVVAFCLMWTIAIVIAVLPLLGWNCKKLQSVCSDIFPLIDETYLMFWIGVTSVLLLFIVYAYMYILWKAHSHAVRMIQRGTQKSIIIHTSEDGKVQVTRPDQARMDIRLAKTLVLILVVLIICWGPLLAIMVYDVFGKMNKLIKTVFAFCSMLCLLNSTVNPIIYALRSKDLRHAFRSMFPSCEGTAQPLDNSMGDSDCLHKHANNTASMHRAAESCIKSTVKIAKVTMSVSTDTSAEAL
T6 sequence (P47746 whole entry): as above
T1 sequence (P21554 whole entry): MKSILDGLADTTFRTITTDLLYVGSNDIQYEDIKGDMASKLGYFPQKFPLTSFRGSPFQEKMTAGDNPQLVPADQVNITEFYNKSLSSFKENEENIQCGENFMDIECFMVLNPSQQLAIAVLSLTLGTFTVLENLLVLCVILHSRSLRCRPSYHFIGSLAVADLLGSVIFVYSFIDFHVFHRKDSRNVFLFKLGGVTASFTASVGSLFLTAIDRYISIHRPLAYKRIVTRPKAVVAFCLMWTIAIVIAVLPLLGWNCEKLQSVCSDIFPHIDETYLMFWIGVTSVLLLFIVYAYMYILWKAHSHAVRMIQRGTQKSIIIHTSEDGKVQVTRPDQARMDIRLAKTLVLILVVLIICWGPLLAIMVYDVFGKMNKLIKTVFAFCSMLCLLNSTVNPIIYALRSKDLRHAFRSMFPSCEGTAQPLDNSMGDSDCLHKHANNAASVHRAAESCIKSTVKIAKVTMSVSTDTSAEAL
T4 sequence (P21554 whole entry, the tested form may be a part): as the sequence (P21554 whole entry) above
T3 sequence (P21554 99-414): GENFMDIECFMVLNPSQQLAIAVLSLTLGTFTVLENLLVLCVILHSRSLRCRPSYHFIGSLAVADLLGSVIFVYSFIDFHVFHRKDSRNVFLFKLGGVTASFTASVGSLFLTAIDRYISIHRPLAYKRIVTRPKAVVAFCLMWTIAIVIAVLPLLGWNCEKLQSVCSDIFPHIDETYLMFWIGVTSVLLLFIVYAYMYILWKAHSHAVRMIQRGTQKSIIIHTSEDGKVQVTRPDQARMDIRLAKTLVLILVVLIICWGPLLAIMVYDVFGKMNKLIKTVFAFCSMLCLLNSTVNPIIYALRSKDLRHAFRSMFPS
T2 sequence (P21554 99-414 limits assumed): as the sequence (P21554 99-414) above

B1: LIBC524049-1 (antibody, V domains shown)
VH: QVQLQESGPGLVKPSQTLSLTCTVSGGSIRRGGDYWSWIRQHPGKGLEWIGHIYYTGSTAYNPSLKSRATISVNTYKNQFSLKLSSVTAADTAVYYCARDYDILTGYSYYYYGMDVWGQGTTVTVSS
VL: not shown
notes: Expressed as IgG1 SEFL2 mAb
Take B1: in assay [1], the “IC50, nM (CP agonist)” value worked out at 3.7 nM. Besides, in assay [2], the “Mean IC50 (nM), cAMP antagonist assay” value amounted to 2.87 nM; the “Mean IC50, -fold vs Rimo” value was found to be 0.96 fold vs Rimonabant; the “n = 1 IC50 (nM), cAMP antagonist assay” value stood at 4.41 nM; the “n = 1 IC50, -fold vs Rimo” value was found to be 1.05 fold vs Rimonabant. Besides, in assay [2], the “n = 2 IC50 (nM), cAMP antagonist assay” value was 1.34 nM and the “n = 2 IC50, -fold vs Rimo” value was found to be 0.75 fold vs Rimonabant. In addition, the “Relative binding (KinExA, on cell; vs LIBC523661 mAb)” value in assay [3] stood at 1.5 ratio. For the same molecule, the “Mean IC50 (nM, n = 3), cAMP antagonist assay” value in [4] is 3.71 nM. In addition, in assay [5], binding was characterised by a dissociation constant (Kd) of 15 nM, the off-rate constant (koff) was determined as 0.000904 s⁻¹ and the association rate constant (kon) was found to be 59000 M⁻¹ s⁻¹.

B2: LIBC524049-1 (antibody, IgG1, V domains shown)
VH: QVQLQESGPGLVKPSQTLSLTCTVSGGSIRRGGDYWSWIRQHPGKGLEWIGHIYYTGSTAYNPSLKSRATISVNTYKNQFSLKLSSVTAADTAVYYCARDYDILTGYSYYYYGMDVWGQGTTVTVSS
VL: not shown
On to B2, for which the “relative binding to 0.2 nM huCB1-ND (relative to 10D10N35Y)” value in [6] is 5.01 fold. Also, in assay [7], the “100 nM huCB1-SMALP binding (normalized to 10D10)” value turned out to be 5.51 fold. In addition, the Fold over mock stood at 1 fold in assay [8] and 0.8 fold in assay [14]. In addition, the “specific huCB1 binding (CB1 ND/Empty ND ratio)” value in assay [9] was 9.5 ratio. Also, the “% of events in the upper right quadrant (display-positive, binding-positive)” value (shortened to “% of events in the upper right quadrant”) in [10] worked out at 24.8%; in assay [13] it was 39.9%. For the same molecule, the binding result in [11] and in [12] was “no binding” throughout.

B3: LIBC527919-1 (antibody, V domains shown)
VH: QVQLQESGPGLVKPSQTLSLTCTVSGGSIRRGGDYWAWIRQHPGKGLEWIGHVYQTGSTAYNPNFKDRATISVNTYKNQFSLKLSSVTAADTAVYYCARNYDALSGYSYYYYGMDVWGQGTTVTVSS
VL: DIQLTQSPSSLSASVGDRVTITCRASQSIISYLNWYQQKPGKAPKLLIYAASSLRSGVPSRFSGSGSGTDFTLTISSLQPEDFATYYCQQYSNYPLTFGGGTRVEIKR
notes: Expressed as IgG1 SEFL2 mAb
Consider B3, for which the “IC50, nM (CP agonist)” value in [1] was found to be 3 nM. Moreover, in assay [2], the “Mean IC50 (nM), cAMP antagonist assay” value stood at 3.44 nM; the “Mean IC50, -fold vs Rimo” value is 1.15 fold vs Rimonabant; the “n = 1 IC50 (nM), cAMP antagonist assay” value is 5.09 nM; the “n = 1 IC50, -fold vs Rimo” value is 1.21 fold vs Rimonabant. For the same molecule, in [2], the “n = 2 IC50 (nM), cAMP antagonist assay” value came to 1.8 nM and the “n = 2 IC50, -fold vs Rimo” value was determined as 1 fold vs Rimonabant. Further, in assay [3], the “Relative binding (KinExA, on cell; vs LIBC523661 mAb)” value was found to be 2.9 ratio. Moreover, in assay [4], the “Mean IC50 (nM, n = 3), cAMP antagonist assay” value stood at 3.01 nM. Moreover, in assay [5], binding was characterised by a dissociation constant (Kd) of 60 nM, the off-rate constant (koff) worked out at 0.00339 s⁻¹ and the kon stood at 56200 M⁻¹ s⁻¹.

B4: LIBC529593-1 (antibody, V domains shown)
VH: QVQLQESGPGLVKPSQTLSLTCTVSGGSIRRGGDYWSWIRQHPGKGLEWIGHIYYSGSTNYNPSLRSRVRISVDTSKNQFSLKLSSVTAADTAVYYCARDYDILTGYSYYYYGLDVWGQGTTVTVSS
VL: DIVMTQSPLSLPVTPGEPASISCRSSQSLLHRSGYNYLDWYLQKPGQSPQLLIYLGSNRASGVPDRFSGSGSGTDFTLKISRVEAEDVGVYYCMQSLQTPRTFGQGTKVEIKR
notes: Fully human antibody from the new XenoMouse campaign
Turning to B4, in assay [15], the “IC50, nM (TR-FRET cAMP assay, CP55,940 and Forskolin)” value came out at 6.4 nM. Also, the “MFI ratio (target- vs mock-transfected cells)” value (shortened to “MFI ratio”) in assay [16] amounted to 422 ratio; in assay [17], 495 ratio; in assay [18], 1 ratio; in [19], 1.1 ratio.

B5: LIBC527997-1 (antibody, V domains shown)
VH: QVQLQESGPGLVKPSQTLSLTCTVSGGSIRRGGDYWAWIRQHPGKGLEWIGHIYQTGSTNYNPRFKGRATISVNTYKNQFSLKLSSVTAADTAVYYCARNYDTLTGYSYYYYGMDVWGQGTTVTVSS
VL: DIQMTQSPSSLSASVGDRVTITCRASQSISNYLNWYQQKPGKAPKLLIYAASSLHSGVPSRFSGSGSGTDFTLTISSLQPEDFASYYCQQYQSYPLTFGQGTKVEIKR
notes: Expressed as IgG1 SEFL2 mAb
In the case of B5, the “IC50, nM (CP agonist)” value in [1] stood at 2.5 nM. In [2], the “Mean IC50 (nM), cAMP antagonist assay” value was 2.97 nM; the “Mean IC50, -fold vs Rimo” value was determined as 0.99 fold vs Rimonabant; the “n = 1 IC50 (nM), cAMP antagonist assay” value came out at 4.37 nM; the “n = 1 IC50, -fold vs Rimo” value stood at 1.04 fold vs Rimonabant. In [2], the “n = 2 IC50 (nM), cAMP antagonist assay” value is 1.57 nM and the “n = 2 IC50, -fold vs Rimo” value was found to be 0.88 fold vs Rimonabant. The “Relative binding (KinExA, on cell; vs LIBC523661 mAb)” value in assay [3] came out at 2.1 ratio. In addition, the “Mean IC50 (nM, n = 3), cAMP antagonist assay” value in assay [4] worked out at 2.54 nM. Further, in [5], the Kd is 26 nM, the koff was 0.00136 s⁻¹ and the kon is 51800 M⁻¹ s⁻¹.

B6: 10D10 (antibody, V domains shown)
VH: QVQLQESGPGLVKPSQTLSLTCTVSGGSIRRGGDYWSWIRQHPGKGLEWIGYIYYSGSTNYNPSLKSRATISVDTSKNQFSLKLSSVTAADTAVYYCARDYDILTGYSYYYYGMDVWGQGTTVTVSS
VL: not shown
notes: also called 10D10 antibody; 10D10 parent
Consider B6, for which the “% of events in the upper right quadrant” value in assay [10] worked out at 1.48%; in [13] it was 0.431%. For the same molecule, the binding result in [11] and in assay [12] was “no binding” in each case.

B7: LIBC523969-1 (antibody, V domains shown)
VH: QVQLQESGPGLVKPSQTLSLTCTVSGGSIRRGGDYWSWIRQHPGKGLEWIGHIYQTGQTKYNPNLKGRATISVNTYKNQFSLKLSSVTAADTAVYYCARDYDILTGYSYYYYGMDVWGQGTTVTVSS
VL: DIVMTQSPLSLPVTPGEPASISCRSSQSLLSSTGANYLDWYLQKPGQSPQLLIYQGSNRASGVPDRFSGSGSGTDFTLKISRVEAEDVGVYYCRQAVGLPRTFGQGTKVEIKR
As to B7, the “relative binding to 0.2 nM huCB1-ND (relative to 10D10N35Y)” value in assay [6] was found to be 4.53 fold. Moreover, the “100 nM huCB1-SMALP binding (normalized to 10D10)” value in assay [7] was 5.69 fold. The “specific huCB1 binding (CB1 ND/Empty ND ratio)” value in [9] was 12.8 ratio. In addition, the “% of events in the upper right quadrant” value was found to be 27.2% in assay [10] and 46.8% in [13].

B8: LIBC560340-1 (antibody, V domains shown)
VH: QVQLQESGPGLVKPSQTLSLICIVSGGSIRRGGDYWNWIRQHPGKGLEWIGHIYYSGSKNYNPSLKSRVTISVDTSKNQFSLKLSSVTAADTAVYYCARGYDSSGYSYYYYGMDVWGQGTTVTVSS
VL: DIVMTQSPLSLPVTPGEPASISCRSSQSLLYSNGHNFLDWYLQKPGQSPQLLIYLGSNRASGVPDRFSGSGSGTDFTLKISRVEAEDVGVYYCMQALQTPRTFGGGTKVEIKR
notes: as for B4
In the case of B8, the “IC50, nM (TR-FRET cAMP assay, CP55,940 and Forskolin)” value in assay [15] worked out at 10.2 nM. Besides, the “MFI ratio” value in assay [16] came out at 578 ratio; in assay [17] it was 705 ratio; in assay [18], 1 ratio; in assay [19] it was 1 ratio.

B9: LIBC560657-1 (antibody, V domains shown)
VH: QVQLRESGPGLVKPSQTLSLICIVSGGSIRRGGDYWNWIRQHPGKGLEWIGHIYYTGTKYYNPSLKSRVTISVDTSKNQFSLKLSSVTAADTAVYYCARGYDSSGYSYYYYGMDVWGQGTTVTVSS
VL: DIVMTQSPLSLPVTPGEPASISCRSSQSLLYSNGHNYLDWYLQKPGQSPQLLIYLGSNRAPGVPDRFSGSGSGTDFTLKISRVEAEDVGVYFCMQALQTPRTFGGGTKVEIKR
notes: as for B4
In the case of B9, the “IC50, nM (TR-FRET cAMP assay, CP55,940 and Forskolin)” value in [15] was found to be 7.5 nM. The “MFI ratio” value in assay [16] was 440 ratio; in assay [17], 444 ratio; in assay [18], 1 ratio; in [19], 1 ratio.
